{
  "source": "patent US20250122280A1",
  "about": "“ANTI-Ly6E ANTIBODIES, IMMUNOCONJUGATES, AND USES THEREOF” (Genentech, Inc., priority 2022, published 2025)",
  "key": {"[1]": {"biological_target": "T1, Ly6E on cell lines known to express Ly6E (Kuramochi, NCI-H1781, HCC1569x2) (human, UniProt Q16553 21-101)", "T1 sequence": "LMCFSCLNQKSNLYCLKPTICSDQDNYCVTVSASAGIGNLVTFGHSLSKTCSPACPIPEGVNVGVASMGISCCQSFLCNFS", "test": "cell-based or functional assay"}, "[2]": {"biological_target": "T1, Ly6E on cell lines known to express …", "test": "flow cytometry on Kuramochi cells", "experimental": "(§1) Cell lines were cultured as recommended by the ATCC. Prior to staining adherent lines were released by Accutase treatment, all cells were filtered and equilibrated in BD Stain buffer (BSA). […] Samples were fixed in 1% PFA (PBS) prior to analysis. Samples were assessed on a BD LSRFortessa. Following exclusion of dead cells, singlets were assessed for antibody binding using FlowJo software (FIGS. 2A-2C)."}, "[3]": {"biological_target": "T1, Ly6E on cell lines known to express …", "test": "flow cytometry on NCI-H1781 cells"}, "[4]": {"biological_target": "T1, Ly6E on cell lines known to express …", "test": "flow cytometry of Fabs on NCI-H1781 cells", "experimental": "as §1"}},
  "data": [
    {"binder": "chimeric (Ch) Ly6E 3A3 ThioMab drug conjugate with SN36325 (antibody, V domains shown, engineered cysteine carrying the SN36325 (seco-CBI-dimer) linker-drug on heavy and/or light chain; position not stated) VH: AVQLVEFGGGLVQPKESLKISCAASGFTFSTVAMHWVRQAPGKGLEWIARIRTKPVNYETYYADSVKGRFTISRDDSKSMVYLQMDNLKTEDAAMYYCSAPNYYDGTYSFAYWGQGTLVTVSS VL: DIVMTQSPTSISISVGERVTMNCKASQNVGSNVDWYQQKTGQSPELLIYKASNRYTGVPGRFTGSGSGTDFTFTISNLQAEDLAVYYCMQSDTKYTFGAGTKVEIKR", "values": [
      {"measurement": "potency difference from non-target control, 5 day anti-proliferation assay (CellTiter-Glo), cell line NCl-H1781", "setting": "[1]", "value": "> 400", "unit": "fold"}
    ]},
    {"binder": "chimeric anti-Ly6E antibody clone 3A3 (rat-human chimeric antibody) (antibody, human IgG1, kappa, V domains shown, Rat variable domains on human IgG1/kappa constant regions; also called Ch Ly6E 3A3) VH: AVQLVEFGGGLVQPKESLKISCAASGFTFSTVAMHWVRQAPGKGLEWIARIRTKPVNYETYYADSVKGRFTISRDDSKSMVYLQMDNLKTEDAAMYYCSAPNYYDGTYSFAYWGQGTLVTVSS VL: DIVMTQSPTSISISVGERVTMNCKASQNVGSNVDWYQQKTGQSPELLIYKASNRYTGVPGRFTGSGSGTDFTFTISNLQAEDLAVYYCMQSDTKYTFGAGTKVEIKR", "values": [
      {"measurement": "binding result", "setting": "[2]", "value": "binds"}
    ]},
    {"binder": "humanized anti-Ly6E (comprising SEQ ID NOs. 3 and 5) (antibody, human IgG1, kappa, V domains shown, also called the humanized version; 3A3.v2.D92E) VH: EVQLVESGGGLVQPGGSLKLSCAASGFTFSTVAMHWVRQASGKGLEWVGRIRTKPVNYETYYADSVKGRFTISRDDSKSTVYLQMNSLKTEDTAVYYCSAPNYYDGTYSFAYWGQGTLVTVSS VL: DIQMTQSPSSLSASVGDRVTITCKASQNVGSNVDWYQQKPGKAPKLLIYKASNRYTGVPSRFSGSGSGTDFTFTISSLQPEDIATYYCMQSETKYTFGQGTKVEIKR", "values": [
      {"measurement": "EC50 (read off the curve)", "setting": "[3]", "value": "~2", "unit": "µg/mL"}
    ]},
    {"binder": "Fab of humanized anti-Ly6E variant LC D92S (Fab, V domains shown, Fab made by proteolysis of the IgG; also called 3A3.v2.D92S) VH: EVQLVESGGGLVQPGGSLKLSCAASGFTFSTVAMHWVRQASGKGLEWVGRIRTKPVNYETYYADSVKGRFTISRDDSKSTVYLQMNSLKTEDTAVYYCSAPNYYDGTYSFAYWGQGTLVTVSS VL: DIQMTQSPSSLSASVGDRVTITCKASQNVGSNVDWYQQKPGKAPKLLIYKASNRYTGVPSRFSGSGSGTDFTFTISSLQPEDIATYYCMQSSTKYTFGQGTKVEIKR", "values": [
      {"measurement": "EC50 (read off the curve)", "setting": "[4]", "value": "~10", "unit": "nM"}
    ]},
    {"binder": "Fab of humanized anti-Ly6E variant LC D92E (Fab, V domains shown, Fab made by proteolysis of the IgG; also called 3A3.v2.D92E) VH: EVQLVESGGGLVQPGGSLKLSCAASGFTFSTVAMHWVRQASGKGLEWVGRIRTKPVNYETYYADSVKGRFTISRDDSKSTVYLQMNSLKTEDTAVYYCSAPNYYDGTYSFAYWGQGTLVTVSS VL: DIQMTQSPSSLSASVGDRVTITCKASQNVGSNVDWYQQKPGKAPKLLIYKASNRYTGVPSRFSGSGSGTDFTFTISSLQPEDIATYYCMQSETKYTFGQGTKVEIKR", "values": [
      {"measurement": "EC50 (read off the curve)", "setting": "[4]", "value": "~10", "unit": "nM"}
    ]}
  ]
}
